Data taken from patent US20250325651A1.

How the values were obtained:
Assay in all cases: sandwich ELISA (coated antibody, conditioned medium, anti-His detection), OD450 grade
[1] = biological target: hMPV005 hMPV F-CompA fusion protein (human metapneumovirus (strain A))
[2] = biological target: hMPV008 hMPV F-CompA fusion protein (human metapneumovirus (strain B))
[3] = biological target: hMPV026 hMPV F-CompA fusion protein (not cleaved by furin) (human metapneumovirus (strain A))
[4] = biological target: hMPV027 hMPV F-CompA fusion protein (not cleaved by furin) (human metapneumovirus (strain A))
[5] = biological target: hMPV033 hMPV F-CompA fusion protein (human metapneumovirus (strain A))
[6] = biological target: hMPV021 hMPV F-CompA fusion protein (human metapneumovirus (strain B))
[7] = biological target: hMPV024 hMPV F-CompA fusion protein (human metapneumovirus (strain A))
[8] = biological target: hMPV027C, furin-cleaved form of hMPV027 hMPV F-CompA fusion protein (human metapneumovirus (strain A))

Measured: OD450

MPE8 (antibody)
1 to 2 od: all assays above
